Results as given in publication PMC9516340, “Familial ALS-associated SFPQ variants promote the formation of SFPQ cytoplasmic aggregates in primary neurons” (Open Biology, 2022).

Target: the molecule itself
Assay: crystal structure; hanging-drop vapour diffusion at 20°C; SFPQ-276-535 L534I (His6-tag removed) mixed 1:1 with RXRα-DBD-130-228 as source of Zn(II); reservoir 0.1 M MES (pH 6.0), 0.2 M calcium chloride, 12% (w/v) PEG 4000; space group P2(1), two protein molecules per asu; 1.83 Å

B1: SFPQ-276-535 L534I (dimerization domain of human splicing factor proline- and glutamine-rich, fALS-associated L534I variant) (domain or fragment, UniProt P23246 276-535, looked up)
chain: EGFKANLSLLRRPGEKTYTQRCRLFVGNLPADITEDEFKRLFAKYGEPGEVFINKGKGFGFIKLESRALAEIAKAELDDTPMRGRQLRVRFATHAAALSVRNLSPYVSNELLEEAFSQFGPIERAVVIVDDRGRSTGKGIVEFASKPAARKAFERCSEGVFLLTTTPRPVIVEPLEQLDDEDGLPEKLAQKNPMYQKERETPPRFAQHGTFEYEYSQRWKSLDEMEKQQREQVEKNMKDAKDKLESEMEDAYHEHQANIL
notes: also called SFPQ L534I
B1: binds.
